Assay results published in patent US20030224487A1.

Tests used:
[1] = target: human zcytor17 receptor, full length, on transfected cells (human); assay: flow cytometry (SA-PE), BHK-C17 cells, ligand 2.0 µg/mL
[2] = target: human zcytor17 receptor, full length, on transfected cells (human); assay: flow cytometry (SA-PE), BAF3-C17 cells, ligand 1.0 ng/mL
[3] = target: human zcytor17 receptor, full length, on transfected cells (human); assay: flow cytometry (SA-PE), BAF3-C17 cells, ligand 10.0 ng/mL
[4] = target: human zcytor17 receptor, full length, on transfected cells (human); assay: flow cytometry (SA-PE), BHK-C17 cells, ligand 0.001 µg/mL
[5] = target: human zcytor17 receptor, full length, on transfected cells (human); assay: flow cytometry (SA-PE), BHK-C17 cells, ligand 0.010 µg/mL
[6] = target: human zcytor17 receptor, full length, on transfected cells (human); assay: flow cytometry (SA-PE), BHK-C17 cells, ligand 0.100 µg/mL
[7] = target: human zcytor17 receptor, full length, on transfected cells (human); assay: flow cytometry (SA-PE), BAF3-C17 cells, ligand 100.0 ng/mL
[8] = target: human zcytor17 receptor, full length, on transfected cells (human); assay: flow cytometry (SA-PE), BHK-C17 cells, ligand 0.0001 µg/mL
[9] = target: human zcytor17 receptor, full length, on transfected cells (human); assay: flow cytometry (SA-PE), BHK-C17 cells, ligand 0.00001 µg/mL
[10] = target: human zcytor17 receptor, full length, on transfected cells (human); assay: flow cytometry (SA-PE), BHK-C17 cells, ligand 0.000001 µg/mL
[11] = target: human zcytor17 and OSMRbeta co-expressed on transfected cells (human); assay: flow cytometry (SA-PE), BHK C17 + OSMRbeta cells, ligand 2.0 µg/mL
[12] = target: human zcytor17 and OSMRbeta co-expressed on transfected cells (human); assay: flow cytometry (SA-PE), BAF3-C17 + OSMRbeta cells, ligand 0.04 µg/mL
[13] = target: human zcytor17 and OSMRbeta co-expressed on transfected cells (human); assay: flow cytometry (SA-PE), BAF3-C17 + OSMRbeta cells, ligand 0.12 µg/mL
[14] = target: human zcytor17 and OSMRbeta co-expressed on transfected cells (human); assay: flow cytometry (SA-PE), BAF3-C17 + OSMRbeta cells, ligand 0.37 µg/mL
[15] = target: human zcytor17 and OSMRbeta co-expressed on transfected cells (human); assay: flow cytometry (SA-PE), BAF3-C17 + OSMRbeta cells, ligand 1.11 µg/mL
[16] = target: human zcytor17 and OSMRbeta co-expressed on transfected cells (human); assay: flow cytometry (SA-PE), BAF3-C17 + OSMRbeta cells, ligand 10.0 µg/mL
[17] = target: human zcytor17 and OSMRbeta co-expressed on transfected cells (human); assay: flow cytometry (SA-PE), BAF3-C17 + OSMRbeta cells, ligand 3.33 µg/mL
[18] = target: human zcytor17 and OSMRbeta co-expressed on transfected cells (human); assay: flow cytometry (SA-PE), BHK C17 + OSMRbeta cells, ligand 0.001 µg/mL
[19] = target: human zcytor17 and OSMRbeta co-expressed on transfected cells (human); assay: flow cytometry (SA-PE), BHK C17 + OSMRbeta cells, ligand 0.010 µg/mL
[20] = target: human zcytor17 and OSMRbeta co-expressed on transfected cells (human); assay: flow cytometry (SA-PE), BHK C17 + OSMRbeta cells, ligand 0.100 µg/mL
[21] = target: human zcytor17 and OSMRbeta co-expressed on transfected cells (human); assay: flow cytometry (SA-PE), BHK C17 + OSMRbeta cells, ligand 0.0001 µg/mL
[22] = target: human zcytor17 and OSMRbeta co-expressed on transfected cells (human); assay: flow cytometry (SA-PE), BHK C17 + OSMRbeta cells, ligand 0.00001 µg/mL
[23] = target: human zcytor17 and OSMRbeta co-expressed on transfected cells (human); assay: flow cytometry (SA-PE), BHK C17 + OSMRbeta cells, ligand 0.000001 µg/mL
[24] = target: human zcytor17 receptor, full length, on transfected cells (human); assay: flow cytometry (SA-PE), BHK-C17 cells, ligand 0.0 µg/mL (no ligand, background)
[25] = target: human zcytor17 receptor, full length, on transfected cells (human); assay: flow cytometry (SA-PE), BAF3-C17 cells, ligand 0.0 ng/mL (no ligand, background)
[26] = target: human OncostatinM receptor beta (OSMRbeta), full length, on transfected cells (human); assay: flow cytometry (SA-PE), BHK-OSMRbeta cells, ligand 0.0 µg/mL (no ligand, background)
[27] = target: human OncostatinM receptor beta (OSMRbeta), full length, on transfected cells (human); assay: flow cytometry (SA-PE), BAF3-OSMRbeta cells, ligand 0.00 µg/mL (no ligand, background)
[28] = target: human zcytor17 and OSMRbeta co-expressed on transfected cells (human); assay: flow cytometry (SA-PE), BHK C17 + OSMRbeta cells, ligand 0.0 µg/mL (no ligand, background)
[29] = target: human zcytor17 and OSMRbeta co-expressed on transfected cells (human); assay: flow cytometry (SA-PE), BAF3-C17 + OSMRbeta cells, ligand 0.00 µg/mL (no ligand, background)
[30] = target: human OncostatinM receptor beta (OSMRbeta), full length, on transfected cells (human); assay: flow cytometry (SA-PE), BHK-OSMRbeta cells, ligand 2.0 µg/mL (background level; no binding)
[31] = target: human OncostatinM receptor beta (OSMRbeta), full length, on transfected cells (human); assay: flow cytometry (SA-PE), BAF3-OSMRbeta cells, ligand 0.04 µg/mL (background level; no binding)
[32] = target: human OncostatinM receptor beta (OSMRbeta), full length, on transfected cells (human); assay: flow cytometry (SA-PE), BAF3-OSMRbeta cells, ligand 0.12 µg/mL (background level; no binding)
[33] = target: human OncostatinM receptor beta (OSMRbeta), full length, on transfected cells (human); assay: flow cytometry (SA-PE), BAF3-OSMRbeta cells, ligand 0.37 µg/mL (background level; no binding)
[34] = target: human OncostatinM receptor beta (OSMRbeta), full length, on transfected cells (human); assay: flow cytometry (SA-PE), BAF3-OSMRbeta cells, ligand 1.11 µg/mL (background level; no binding)
[35] = target: human OncostatinM receptor beta (OSMRbeta), full length, on transfected cells (human); assay: flow cytometry (SA-PE), BAF3-OSMRbeta cells, ligand 10.0 µg/mL (background level; no binding)
[36] = target: human OncostatinM receptor beta (OSMRbeta), full length, on transfected cells (human); assay: flow cytometry (SA-PE), BAF3-OSMRbeta cells, ligand 3.33 µg/mL (background level; no binding)
[37] = target: human zcytor17 and OSMRbeta co-expressed on transfected cells (human); assay: cell-based or functional assay
[38] = target: human zcytor17, OSMRbeta and WSX-1 co-expressed on transfected cells (human); assay: cell-based or functional assay

biotinylated human zcytor17L (ligand)
mean fluorescent intensity (MFI) [1]: 3030 | mean fluorescent intensity (MFI) [2]: 17 | mean fluorescent intensity (MFI) [3]: 72 | mean fluorescent intensity (MFI) [4]: 39 | mean fluorescent intensity (MFI) [5]: 244 | mean fluorescent intensity (MFI) [6]: 1600 | mean fluorescent intensity (MFI) [7]: 347 | mean fluorescent intensity (MFI) [8]: 16 | mean fluorescent intensity (MFI) [9]: 15 | mean fluorescent intensity (MFI) [10]: 14 | mean fluorescent intensity (MFI) [11]: 3780 | mean fluorescent intensity (MFI) [12]: 247 | mean fluorescent intensity (MFI) [13]: 364 | mean fluorescent intensity (MFI) [14]: 441 | mean fluorescent intensity (MFI) [15]: 489 | mean fluorescent intensity (MFI) [16]: 531 | mean fluorescent intensity (MFI) [17]: 508 | mean fluorescent intensity (MFI) [18]: 53 | mean fluorescent intensity (MFI) [19]: 328 | mean fluorescent intensity (MFI) [20]: 2130 | mean fluorescent intensity (MFI) [21]: 17 | mean fluorescent intensity (MFI) [22]: 15 | mean fluorescent intensity (MFI) [23]: 14 | mean fluorescent intensity (MFI) [24]: 15 | mean fluorescent intensity (MFI) [25]: 7 | mean fluorescent intensity (MFI) [26]: 0 | mean fluorescent intensity (MFI) [27]: 11 | mean fluorescent intensity (MFI) [28]: 13 | mean fluorescent intensity (MFI) [29]: 7 | mean fluorescent intensity (MFI) [30]: 13 | mean fluorescent intensity (MFI) [31]: 5 | mean fluorescent intensity (MFI) [32]: 5 | mean fluorescent intensity (MFI) [33]: 5 | mean fluorescent intensity (MFI) [34]: 5 | mean fluorescent intensity (MFI) [35]: 6 | mean fluorescent intensity (MFI) [36]: 5

B1: human zcytor17lig (untagged, expressed from cDNA or native in conditioned media) (ligand)
chain: MASHSGPSTSVLFLFCCLGGWLASHTLPVRLLRPSDDVQKIVEELQSLSKMLLKDVEEEKGVLVSQNYTLPCLSPDAQPPNNIHSPAIRAYLKTIRQLDNKSVIDEIIEHLDKLIFQDAPETNISVPTDTHECKRFILTISQQFSECMDLALKSLTSGAQQATT
proliferation of BaF3/zcytor17/OSMRbeta cells (Alamar Blue) with conditioned media from activated CCRF-CEM and CCRF-HSB2 cells (fold over background) [37]: 10 | proliferation of BaF3/zcytor17/OSMRbeta cells (Alamar Blue) with conditioned media from activated CD3+ selected human cells [37]: 15 fold | proliferation of BaF3/zcytor17/WSX-1/OSMRbeta cells (Alamar Blue) with conditioned media from activated CCRF-CEM and CCRF-HSB2 cells (fold over background) [38]: 10 | proliferation of BaF3/zcytor17/WSX-1/OSMRbeta cells (Alamar Blue) with conditioned media from activated CD3+ selected human cells (fold over background) [38]: 15
